Laboratory results taken from paper doi:10.1101/2025.06.01.657267, “IFITM1 and IFITM3 cooperate to restrict virus entry in endolysosomes” (bioRxiv, 2025).

Biological target: T1, FLAG-IFITM3 G95L (human, UniProt Q01628 1-133, G95L)
T1 construct: Interferon-induced transmembrane protein 3 (IFITM3), human, with G95L in the GxxxG motif of the CD225 domain; also called pQCXIP-FLAG-IFITM3 G95L; source: HEK293T, stably expressing pQCXIP-FLAG-IFITM3 G95L, in lysate; HEK293T, transiently transfected, in fixed cells
T1 sequence (Q01628 whole entry G95L, the tested form may be a part): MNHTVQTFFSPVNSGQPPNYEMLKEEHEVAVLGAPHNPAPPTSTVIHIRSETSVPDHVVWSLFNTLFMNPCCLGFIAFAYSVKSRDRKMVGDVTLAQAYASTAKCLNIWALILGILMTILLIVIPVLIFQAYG
Experiment: affinity purification with mass spectrometry; anti-FLAG (M2) immunoprecipitation from whole cell lysates (1% Triton X-100, 150 mM NaCl) of HEK293T stably expressing FLAG-IFITM3 WT, G95L or Empty Vector; TMT labelling, duplicate MS runs
Conditions: partners not purified

B1: endogenous IFITM1 (natural protein, UniProt P13164 1-125, looked up)
chain: MHKEEHEVAVLGPPPSTILPRSTVINIHSETSVPDHVVWSLFNTLFLNWCCLGFIAFAYSVKSRDRKMVGDVTGAQAYASTAKCLNIWALILGILMTIGFILLLVFGSVTVYHIMLQIIQEKRGY
notes: Interferon-induced transmembrane protein 1 (IFITM1), human, endogenous
- fold more IFITM1 pulled down by IFITM3 WT than by IFITM3 G95L: ~9 fold
